Legend:
[1] = biological target: T1, recombinant human CD163 protein (hCD163-Avi-His6, U-Protein Express BV) (human, UniProt Q86VB7 42-1050, limits assumed, site-specifically biotinylated on the Avi tag in the ELISA format); test: ELISA-format binding to hCD163-Avi-His6, bound radioactivity by gamma counter (FIG. 9A); radiolabeled; recombinant hCD163 protein (FIG. 9A)
T1 construct: Bought recombinant protein; also called hCD163 protein; recombinant hCD163; not shown: Avi tag and His6 tag
Excerpt: (§1) FIG. 9. Determination of single domain antibody binding affinities after NOTA-conjugation via ELISA and a cell-binding study. (A) Binding of different concentrations of the ⁶⁸Gallium-labeled anti-CD163 single domain antibody (“[⁶⁸Ga]Ga-NOTA-anti-CD163 Nb”) to the human CD163-Avi-Hexahistine protein, compared to binding of a control irrelevant ⁶⁸Gallium-labeled single domain antibody (“[⁶⁸Ga]Ga-NOTA-Irr Nb”) (B) Single domain antibody binding of different concentrations of the […] anti-CD163 single domain antibody to HEK293T cells overexpressing mouse CD163.
(§2) Affinity determination of the [⁶⁸Ga]Ga-NOTA-anti-CD163 sdAb via ELISA was performed as described in the previous paragraph. The radioactive sdAb binding on the hCD163-Avi-His6 protein was measured via a γ-counter.

[2] = biological target: T1, recombinant human CD163 protein …; test: ELISA-format binding of radiolabeled sdAb to human CD163-Avi-His6 protein, read by gamma-counter
Excerpt: as §1, §2

[3] = biological target: T1, recombinant human CD163 protein …; test: binding to recombinant hCD163 protein (SPR per paragraph 101); NOTA-conjugated, not radiolabeled; recombinant hCD163 protein
Procedure: (§3) The affinity of purified CD163-targeting sdAb and of the NOTA-conjugated anti-CD163 sdAb to recombinant hCD163 and mCD163 protein (U-Protein Express BV) was determined using the BIACORE-T200 (GE Healthcare, Freiburg, Germany). Surface plasmon resonance measurements were performed at 25° C. with HEPES buffered saline (HBS, 20 mM of HEPES pH 7.4, 150 mM of NaCl, 3.4 mM of EDTA 0.05% Tween-20) running buffer. The sdAbs were injected consecutively in 2-fold serial dilutions, from 250 to 1 nM. The association step was 100 s, the dissociation step was 200 s, and the two-step regeneration of 35 s at 30 μL·min-1, using 100 mM glycine at pH 3.0, was performed. Local curve fitting analysis was performed using the BIACORE evaluation software (GE Healthcare) by fitting the obtained sensorgrams to theoretical curves, assuming 1-1 binding geometries. For the determination of the equilibrium dissociation constant, the ratio of the association and dissociation rate constants were determined.

[4] = biological target: T1, recombinant human CD163 protein …; test: SPR (Biacore T200), recombinant hCD163 protein
Procedure: as §3

[5] = biological target: T1, recombinant human CD163 protein …; test: SPR, recombinant hCD163 protein; mean ± S.D. of at least 3 independent experiments; mean ± S.D of at least 3 independent experiments (Table 1B), not the single value of Table 1A
Procedure: as §3

[6] = biological target: T2, human CD163 on HEK293T cells overexpressing hCD163 (human, UniProt Q86VB7 42-1156); test: flow cytometry on HEK293T hCD163+ cells; mean ± S.D. of at least 3 independent experiments
T2 construct: whole, on cells; also called HEK hCD163+ cells; HEK293T hCD163+ cells
Procedure: (§4) Serial dilutions of the CD163-targeting sdAb and of the NOTA-conjugated anti-CD163 sdAb were incubated with 500.000 HEK293T cells overexpressing hCD163 or mCD163 in FACS buffer (HBSS (Gibco) supplemented with 1% FBS and 2 mM EDTA (Duchefa Biochemie, Haarlem, The Netherlands)) for 1 h at 4° C. NOTA-sdAb binding was detected by incubation of the cells with a PE tagged anti-VHH Ab (1:500 in FACS buffer, Genscript, Piscataway, NJ, USA) for 30 min at 4° C. Cells were washed once with FACS buffer. Next, sdAb binding was detected by incubation of the cells with an Alexa Fluor®-488 tagged anti-HA antibody (1:1000 in FACS buffer, clone 16B12, Biolegend, San Diego, CA, USA) for 30 min at 4° C. Again, cells were washed once with FACS buffer. sdAb binding was determined using the FACS CANTO II analyser (BD Biosciences, Franklin Lakes, NJ, USA). The mean fluorescent intensity of sdAb binding was determined using FlowJo version 10.

[7] = biological target: T2, human CD163 on HEK293T cells …; test: flow cytometry on HEK293T hCD163+ cells
Excerpt: FIG. 2. Binding of the CD163-targeting single domain antibody (23766) to HEK293T cells overexpressing the hCD163 or mCD163 protein. A) Binding of different concentrations of the CD163-specific single domain antibody 23766 or an irrelevant single domain antibody (“Irr Nb”; R3b23) to HEK293T cells overexpressing (A), hCD163 or (B) mCD163 protein. Binding was detected as mean fluorescent intensity (MFI) via the C-terminal His-tag and a fluorescent labeled anti-His antibody using flow cytometry.
as §4, with “Cells were washed once with FACS buffer.” left out

T1 sequence (Q86VB7 42-1050 limits assumed): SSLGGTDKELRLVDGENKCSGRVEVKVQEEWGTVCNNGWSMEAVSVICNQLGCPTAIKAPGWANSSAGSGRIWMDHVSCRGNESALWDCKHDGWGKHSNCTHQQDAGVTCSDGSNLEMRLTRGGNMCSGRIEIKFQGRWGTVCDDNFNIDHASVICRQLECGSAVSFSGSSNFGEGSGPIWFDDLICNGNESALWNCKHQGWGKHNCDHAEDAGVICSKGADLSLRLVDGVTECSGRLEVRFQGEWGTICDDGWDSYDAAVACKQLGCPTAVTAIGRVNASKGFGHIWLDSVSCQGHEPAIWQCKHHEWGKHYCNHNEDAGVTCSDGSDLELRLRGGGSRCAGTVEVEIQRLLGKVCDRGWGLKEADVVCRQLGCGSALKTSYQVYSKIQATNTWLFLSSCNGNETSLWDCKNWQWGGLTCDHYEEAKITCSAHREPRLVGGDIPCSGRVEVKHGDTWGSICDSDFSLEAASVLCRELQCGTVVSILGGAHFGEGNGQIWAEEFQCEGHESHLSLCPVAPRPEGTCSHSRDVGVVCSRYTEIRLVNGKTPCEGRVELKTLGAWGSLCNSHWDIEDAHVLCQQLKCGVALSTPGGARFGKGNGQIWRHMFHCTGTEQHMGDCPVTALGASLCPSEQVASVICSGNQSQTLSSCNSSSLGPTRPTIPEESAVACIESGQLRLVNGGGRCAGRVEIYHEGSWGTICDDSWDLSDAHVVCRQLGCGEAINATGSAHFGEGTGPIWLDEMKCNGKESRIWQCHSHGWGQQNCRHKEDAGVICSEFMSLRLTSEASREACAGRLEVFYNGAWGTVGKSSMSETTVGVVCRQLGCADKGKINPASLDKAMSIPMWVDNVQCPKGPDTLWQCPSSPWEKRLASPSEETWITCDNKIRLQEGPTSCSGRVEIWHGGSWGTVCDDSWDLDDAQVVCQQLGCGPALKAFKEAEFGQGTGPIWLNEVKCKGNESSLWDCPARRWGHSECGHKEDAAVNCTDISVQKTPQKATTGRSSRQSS
T2 sequence (Q86VB7 42-1156): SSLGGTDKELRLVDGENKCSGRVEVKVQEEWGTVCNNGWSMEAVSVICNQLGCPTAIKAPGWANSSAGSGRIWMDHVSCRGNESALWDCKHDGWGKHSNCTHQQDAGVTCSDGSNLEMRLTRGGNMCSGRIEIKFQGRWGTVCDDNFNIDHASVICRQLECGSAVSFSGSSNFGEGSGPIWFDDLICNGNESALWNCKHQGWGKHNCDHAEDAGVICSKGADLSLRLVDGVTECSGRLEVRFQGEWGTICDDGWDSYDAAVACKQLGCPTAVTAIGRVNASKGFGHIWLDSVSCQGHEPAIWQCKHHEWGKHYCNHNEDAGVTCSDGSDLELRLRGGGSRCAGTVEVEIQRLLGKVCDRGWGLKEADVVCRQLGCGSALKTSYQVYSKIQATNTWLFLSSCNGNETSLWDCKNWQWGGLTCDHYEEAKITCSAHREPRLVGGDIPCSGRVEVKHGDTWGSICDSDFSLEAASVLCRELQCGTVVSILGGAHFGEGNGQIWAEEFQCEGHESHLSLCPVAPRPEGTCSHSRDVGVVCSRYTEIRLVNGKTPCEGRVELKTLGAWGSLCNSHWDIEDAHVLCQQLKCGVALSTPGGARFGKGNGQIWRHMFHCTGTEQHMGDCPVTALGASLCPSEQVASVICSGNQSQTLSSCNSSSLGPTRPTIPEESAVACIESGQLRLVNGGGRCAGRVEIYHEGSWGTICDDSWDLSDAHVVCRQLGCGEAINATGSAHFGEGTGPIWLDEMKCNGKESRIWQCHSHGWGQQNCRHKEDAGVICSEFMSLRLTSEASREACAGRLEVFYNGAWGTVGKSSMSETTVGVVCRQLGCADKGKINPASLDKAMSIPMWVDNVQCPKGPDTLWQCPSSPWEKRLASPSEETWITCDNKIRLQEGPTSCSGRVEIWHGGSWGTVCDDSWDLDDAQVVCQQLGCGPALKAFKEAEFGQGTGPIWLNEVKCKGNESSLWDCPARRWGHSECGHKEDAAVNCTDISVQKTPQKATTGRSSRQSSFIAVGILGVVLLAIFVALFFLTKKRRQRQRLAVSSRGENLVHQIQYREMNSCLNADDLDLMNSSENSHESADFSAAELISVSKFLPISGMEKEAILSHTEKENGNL

B1: [68Ga]Ga-NOTA-anti-CD163 single domain antibody (VHH)
VHH: DVQLVESGGGLVQPGGSLRLSCAASGITFSSYAVAWFRQASGKEREFVAFIGWDGDTTYYVDSVKGRFTISRDNAKNMVYLQMNSLKPDDTAIYYCARHKTLWRSSWDNRPVQYDYWGQGTQVTVSS
modifications: p-SCN-Bn-NOTA randomly conjugated to lysines, chelating 68Ga
notes: Radiolabeled form of the NOTA conjugate of the lead anti-CD163 sdAb; also called 68Gallium-labeled anti-CD163 single domain antibody; [68Ga]Ga-NOTA-anti-CD163 Nb
In the case of B1, the Kd [1] is reported as 9.11 nM and the “EC50 (read off the curve)” value [2] is reported as about 7 nM.

B2: NOTA-conjugated anti-CD163 single domain antibody (VHH)
VHH: DVQLVESGGGLVQPGGSLRLSCAASGITFSSYAVAWFRQASGKEREFVAFIGWDGDTTYYVDSVKGRFTISRDNAKNMVYLQMNSLKPDDTAIYYCARHKTLWRSSWDNRPVQYDYWGQGTQVTVSS
modifications: p-SCN-Bn-NOTA randomly conjugated to lysines; 2.32±0.12 chelator per single domain antibody
notes: The lead anti-CD163 sdAb (23766) conjugated to NOTA; also called NOTA-single domain antibody; NOTA-sdAb
Work on B2 yielded a Kd [3] of 1.55 nM.

B3: CD163-targeting single domain antibody 23766 (VHH, not shown: small tags and cut ends)
VHH: DVQLVESGGGLVQPGGSLRLSCAASGITFSSYAVAWFRQASGKEREFVAFIGWDGDTTYYVDSVKGRFTISRDNAKNMVYLQMNSLKPDDTAIYYCARHKTLWRSSWDNRPVQYDYWGQGTQVTVSS
notes: Llama-derived sdAb cloned in the pMECS phage vector; also called sdAb 23766; sdAb23766
In the case of B3, the Kd [4] is reported as 3.5 nM, the Kd [5] is reported as 0.5 nM and the Kd [6] is reported as 11.3 nM. For the same binder, the Kd [7] was 2.5 nM.

— patent publication US20260234282A1 (VIB VZW, published 2026)
